Kd data for one molecule are collected here from paper PMC11887224.

One may read the Kd as the equilibrium constant for the complex coming apart.

This series has as its target Trop-2 (recombinant, His-tagged) (UniProt P09758 27-274). Description: SPR. For orientation: SPR reads the build-up and loss of mass on a sensor chip optically.

Trop-2 (recombinant, His-tagged), sequence (P09758 27-274): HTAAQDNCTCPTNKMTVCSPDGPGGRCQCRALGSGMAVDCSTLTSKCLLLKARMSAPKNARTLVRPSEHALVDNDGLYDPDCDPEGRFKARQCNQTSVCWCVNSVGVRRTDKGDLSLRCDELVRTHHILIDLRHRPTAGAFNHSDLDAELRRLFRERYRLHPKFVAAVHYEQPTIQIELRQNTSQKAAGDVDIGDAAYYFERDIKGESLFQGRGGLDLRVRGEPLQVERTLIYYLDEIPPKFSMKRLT

B1: TRPFL (structured_DNA)
DNA: CTACGGTGCCTTGAAGTGACTCGTTCCGTCCCTGGCCGCTCCTACTATCGATGTGTCATAGCAGGTCACTTCCAGG
Take B1: the Kd was determined as 110 nM.
